Results on two substances are retold here after publication PMC11535432.

The target in this experiment is inactive mutant of SARS-CoV-2 main protease M^pro (His41Ala, Cys145Ala) (SARS-CoV-2). Nature of the experiment: native MS.

On to “substrate peptide nsp5/6 (11-mer, P6 to P5') (from UniProt P0DTD1 3564-3574)”, for which the stoichiometry N (peptide per M^pro dimer) was < 2.

As to “substrate peptide nsp14/15 (11-mer, P6 to P5') (from UniProt P0DTD1 6447-6457)”, the stoichiometry N (peptide per M^pro dimer) was < 2.
